Experimental findings from patent US20220119534A1 (DRAGONFLY THERAPEUTICS, published 2022) are described below.

Assay [1] addresses T1, Human CD16a V158 (FcγRIIIa V158) (human, UniProt P08637 17-208, biotinylated (site not stated)).
T1 construct: V158 is the allele name in mature numbering; also called hCD16aV; hCD16a V158
As to the kind of experiment: SPR; biotinylated CD16a V158 captured on SA chip, TriNKET as analyte; 1:1 kinetic fit; control sample, n=3.

Assay [2] deals with T2, Human CLEC12A-His (human, UniProt Q5QGZ9 65-265).
T2 construct: Recombinant soluble protein made in house (Dragonfly Tx); The hCLEC12A spot of the HuProt array is written under this molecule as well; also called hCLEC12A-His; hCLEC12A; not shown: His tag
T2 sequence: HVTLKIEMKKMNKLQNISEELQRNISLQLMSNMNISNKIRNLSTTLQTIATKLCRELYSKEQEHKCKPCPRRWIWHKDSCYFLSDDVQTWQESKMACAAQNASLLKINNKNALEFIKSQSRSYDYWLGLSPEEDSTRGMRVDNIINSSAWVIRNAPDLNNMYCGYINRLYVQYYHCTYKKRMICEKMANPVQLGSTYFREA
As to the kind of experiment: SPR Biacore 8K 37 C; TriNKET captured on anti-hFc chip, hCLEC12A-His as analyte; 1:1 fit; control sample, n=2.

The target of assay [3] is T3, mFc-hNKG2D (human, UniProt P26718 73-216).
T3 construct: extracellular domain; Made in house (Dragonfly Tx); the order of tag and ECD follows the name mFc-hNKG2D; also called mFc-tagged human NKG2D; not shown: mouse Fc tag
T3 sequence (looked up): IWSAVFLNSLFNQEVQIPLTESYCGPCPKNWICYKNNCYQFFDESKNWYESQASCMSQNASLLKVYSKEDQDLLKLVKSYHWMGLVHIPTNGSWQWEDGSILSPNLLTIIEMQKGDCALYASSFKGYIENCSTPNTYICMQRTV
In words: SPR Biacore 8K 37 C; mFc-hNKG2D captured on anti-mFc chip, TriNKET as analyte; 1:1 kinetic fit; after 4 wks 40 C in CST pH 7.0, n=3.

Assay [4] concerns the target T4, Human CD32a H131 (FcγRIIa H131) (human, UniProt P12318 36-218, limits assumed, biotinylated).
T4 construct: Bought recombinant receptor; also called hFcγRIIa H131; FcgRIIa H131
T4 sequence (looked up): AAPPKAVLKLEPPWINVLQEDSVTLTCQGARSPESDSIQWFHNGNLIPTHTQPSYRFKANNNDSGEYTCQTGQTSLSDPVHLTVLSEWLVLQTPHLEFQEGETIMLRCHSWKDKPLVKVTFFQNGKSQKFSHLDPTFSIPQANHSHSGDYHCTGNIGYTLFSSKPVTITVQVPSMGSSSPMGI
In words: SPR 25C, average.

For assay [5], the target named is T5, Human CD32a R131 (FcγRIIa R131) (human, UniProt P12318 36-218, limits assumed, biotinylated).
T5 construct: Bought recombinant receptor; also called hFcγRIIa R131; FcgRIIa R131
T5 sequence (looked up): T4 sequence (looked up) with H132R
As to the kind of experiment: SPR 25C, average.

The target in assay [6] is T6, Human CLEC12A expressed on cells (Ba/F3-hCLEC12A, PL21, HL60) (human, UniProt Q5QGZ9 1-265).
T6 sequence: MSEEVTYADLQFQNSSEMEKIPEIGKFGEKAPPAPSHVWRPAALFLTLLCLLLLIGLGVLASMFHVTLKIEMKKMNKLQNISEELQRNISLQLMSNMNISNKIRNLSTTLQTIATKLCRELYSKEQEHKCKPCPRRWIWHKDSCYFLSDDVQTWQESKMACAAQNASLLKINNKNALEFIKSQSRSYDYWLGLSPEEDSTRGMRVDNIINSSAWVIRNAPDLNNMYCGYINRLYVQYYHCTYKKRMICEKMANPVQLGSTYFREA
In words: cell-based or functional assay.

For assay [7], the target named is T7, mFc-hNKG2D (recombinant mFc-tagged human NKG2D dimer) (human, UniProt P26718 73-216).
T7 construct: extracellular domain; Made in house; not shown: mouse Fc tag
T7 sequence (looked up): T3 sequence (looked up)
In words: SPR; after 4 wks 40C in HST pH 6.0.

Assay [8] addresses T8, Human CD16a V158 (FcγRIIIa V158) (human, UniProt P08637 17-208, biotinylated).
T8 construct: Bought recombinant receptor; also called hCD16aV; hFcγRIIIa V158
In words: SPR; after 4 wks 40C in HST pH 6.0.

The target of assay [9] is T9, Human CD32b (FcγRIIb) (human, UniProt P31994 46-217, limits assumed, biotinylated).
T9 construct: Bought recombinant receptor; also called hFcγRIIb; CD32b (FcγR2b)
T9 sequence (looked up): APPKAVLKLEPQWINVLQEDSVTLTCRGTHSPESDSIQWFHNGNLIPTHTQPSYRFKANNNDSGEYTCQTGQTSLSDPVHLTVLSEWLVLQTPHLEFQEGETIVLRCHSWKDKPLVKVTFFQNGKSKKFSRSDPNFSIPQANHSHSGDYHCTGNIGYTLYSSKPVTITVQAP
As to the kind of experiment: SPR 25C, biotinylated CD32b captured.

Assay [10] addresses T10, Human CLEC12A-His (recombinant, K244 WT) (human, UniProt Q5QGZ9 65-265).
T10 construct: Made in house (Dragonfly Tx); also called hCLEC12A; hCLEC12A-His; not shown: His tag
T10 sequence: T2 sequence
As to the kind of experiment: SPR, two-state fit (ka1); after forced oxidation.

Assay [11] deals with T10, Human CLEC12A-His (recombinant, K244 WT). As to the kind of experiment: SPR, two-state fit (ka1); control (fully purified protein study).
Assay [12] has as its target T11, human CLEC12A on cells (HL60, PL21, Ba/F3-hCLEC12A) (human, UniProt Q5QGZ9 1-265).
T11 construct: Endogenous on the AML lines HL60 and PL21; brought into mouse Ba/F3 cells by retroviral transduction; The cell line stands under assay; also called CLL-1
T11 sequence: T6 sequence
As to the kind of experiment: flow cytometry, PL21 cells.

Positions count from the first letter of the chain named. Names may count otherwise. “And” between values parts separate entries of the source, which are not always exact repeats. Identical values can stand only once.

T1 sequence (P08637 17-208 F176V limits assumed): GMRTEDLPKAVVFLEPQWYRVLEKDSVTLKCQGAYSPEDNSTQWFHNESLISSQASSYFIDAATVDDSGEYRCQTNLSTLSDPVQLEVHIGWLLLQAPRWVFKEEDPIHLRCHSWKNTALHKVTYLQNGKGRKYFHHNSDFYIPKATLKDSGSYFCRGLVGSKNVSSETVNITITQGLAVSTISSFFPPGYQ
T8 sequence (P08637 17-208 F176V limits assumed): as above

B1: F3'-1602 TriNKET (bispecific antibody, human IgG1, kappa)
chain: QLQLQESGPGLVKPSETLSLTCTVSGFSLTNYGLHWIRQPPGKCLEWIGVIWSGGKTDYNPSLKSRVTISKDTSKNQFSLKLSSVQAADTAVYYCAKYDYDDSLDYWGQGTLVTVSSGGGGSGGGGSGGGGSGGGGSDIQMTQSPSSLSASVGDRVTITCHASQNINFWLSWYQQKPGKAPKLLIYEASNLHTGVPSRFSGSGSGTRFTLTISSLQPEDIATYYCQQSHSYPLTFGCGTKLEIKGSDKTHTCPPCPAPELLGGPSVFLFPPKPKDTLMISRTPEVTCVVVDVSHEDPEVKFNWYVDGVEVHNAKTKPREEQYNSTYRVVSVLTVLHQDWLNGKEYKCKVSNKALPAPIEKTISKAKGQPREPRVYTLPPCRDELTKNQVSLTCLVKGFYPSDIAVEWESNGQPENNYKTTPPVLVSDGSFTLYSKLTVDKSRWQQGNVFSCSVMHEALHNHYTQKSLSLSPG
heavy: EVQLVESGGGLVKPGGSLRLSCAASGFTFSSYSMNWVRQAPGKGLEWVSSISSSSSYIYYADSVKGRFTISRDNAKNSLYLQMNSLRAEDTAVYYCARGAPIGAAAGWFDPWGQGTLVTVSSASTKGPSVFPLAPSSKSTSGGTAALGCLVKDYFPEPVTVSWNSGALTSGVHTFPAVLQSSGLYSLSSVVTVPSSSLGTQTYICNVNHKPSNTKVDKKVEPKSCDKTHTCPPCPAPELLGGPSVFLFPPKPKDTLMISRTPEVTCVVVDVSHEDPEVKFNWYVDGVEVHNAKTKPREEQYNSTYRVVSVLTVLHQDWLNGKEYKCKVSNKALPAPIEKTISKAKGQPREPQVCTLPPSRDELTENQVSLTCLVKGFYPSDIAVEWESNGQPENNYKTTPPVLDSDGSFFLYSWLTVDKSRWQQGNVFSCSVMHEALHNHYTQKSLSLSPG
light: DIQMTQSPSSVSASVGDRVTITCRASQGISSWLAWYQQKPGKAPKLLIYAASSLQSGVPSRFSGSGSGTDFTLTISSLQPEDFATYYCQQGVSFPRTFGGGTKVEIKRTVAAPSVFIFPPSDEQLKSGTASVVCLLNNFYPREAKVQWKVDNALQSGNSQESVTEQDSKDSTYSLSSTLTLSKADYEKHKVYACEVTHQGLSSPVTKSFNRGEC
notes: Trispecific F3' format: CLEC12A scFv-Fc paired with NKG2D Fab-Fc; Stressed and control samples of the stability studies are the same molecule; also called AB0237
As for B1, in assay [1], the affinity, expressed as Kd, was 212 nM; the koff is 0.024 s⁻¹; the kon was found to be 113000 M⁻¹ s⁻¹. In assay [2], this molecule returned a Kd of 0.98 nM, a koff of 0.000735 s⁻¹ and a kon of 750000 M⁻¹ s⁻¹. In assay [3], this molecule registered a Kd of 708 nM, a dissociation rate constant (koff) of 0.14 s⁻¹ and a kon of 198000 M⁻¹ s⁻¹.

B2: AB0089 TriNKET (bispecific antibody, human IgG1, kappa)
chain: B1 chain with S53V, K56A, K71V, Y98G, D101G, S103T, R207D, I220F
heavy: B1 heavy
light: B1 light
notes: F3' format heterodimer of three chains; human IgG1 Fc with EW-RVT and Y349C/S354C mutations; also called AB0089 Lot AB0089-002; CLEC12A TriNKET AB0089
On to B2, for which the equilibrium dissociation constant (Kd) in [4] was 900 nM; in assay [5] it was 1250 nM; in assay [7], 796 nM; in [8], 359 nM; in assay [9], 7100 nM and 5300 nM and 7400 nM. Besides, the “EC50, KHYG-1-CD16aV cytotoxicity assay; after pH 5.0, 40C, 2 wks” value in assay [6] is 0.16 nM. Besides, the “EC50, KHYG-1-CD16aV cytotoxicity assay; control sample” value in assay [6] amounted to 0.11 nM. Further, the koff in assay [7] came out at 0.132 s⁻¹; in assay [8], 0.0284 s⁻¹. Further, the kon in assay [7] was 166000 M⁻¹ s⁻¹; in assay [8], 79300 M⁻¹ s⁻¹; in [10] it was 9.93e+06 M⁻¹ s⁻¹; in assay [11], 1.03e+07 M⁻¹ s⁻¹.

B3: AB0192 TriNKET (other)
chain: EVQLVESGGGVVQPGGSLRLSCAASGFTFNAFGMHWVRQAPGKCLEWVAFISSGSTSIYYANTVKGRFTISRDNSKNTLYLQMNSLRAEDTAVYYCARDGYPTGGAMDYWGQGTSVTVSSGGGGSGGGGSGGGGSGGGGSDIQMTQSPSSLSASVGDRVTITCKASQDIYNYLSWFQQKPGKAPKPLIYRANILVSGVPSRFSGSGSGQDYTFTISSLQPEDIATYYCLQFDAFPFTFGCGTKLEIKGSDKTHTCPPCPAPELLGGPSVFLFPPKPKDTLMISRTPEVTCVVVDVSHEDPEVKFNWYVDGVEVHNAKTKPREEQYNSTYRVVSVLTVLHQDWLNGKEYKCKVSNKALPAPIEKTISKAKGQPREPRVYTLPPCRDELTKNQVSLTCLVKGFYPSDIAVEWESNGQPENNYKTTPPVLVSDGSFTLYSKLTVDKSRWQQGNVFSCSVMHEALHNHYTQKSLSLSPG
heavy: B1 heavy
light: B1 light
notes: the condition stands under assay; also called AB0192 Lot AB0192-005
B3 gave an EC50 in [12] of 0.43 nM.
